Patent US20180312587A1 (ADURO BIOTECH HOLDINGS EUROPE B V, published 2018)
Like-named read-outs stand apart in the source and are kept apart here. Blank lines part the entries; values can stand above or below the binder they belong to.

Tests used:
human SIRPα variant 2 [1] = target: T1, human SIRPα variant 2 (human, UniProt P78324 31-504); assay: CELISA, CHO-K1 transfectants; average of two experiments
T1 construct: full length ORF on transfected CHO-K1 cells; also called hSIRPαV2; SIRPαV2
Procedure: (§1) The binding specificity of antibodies hSIRPα.40A and hSIRPα.50A to hSIRPα were compared in a CELISA format. In short, CHO-K1 cells were transiently transfected with hSIRPαV1, hSIRPαV2, hSIRPβ1, hSIRPβL, and hSIRPγ cDNAs. Subsequently, hSIRPα binding was assessed by CELISA using CHO-K1.hSIRPαV1, CHO-K1.hSIRPαV2, CHO-K1.hSIRPβ1, CHO-K1.hSIRPβL, and CHO-K1.hSIRPγ cells. Detection of bound antibody was done with goat-anti-mouse IgG-HRP (Southern Biotech).

human SIRPα variant 1 [2] = target: T2, human SIRPα variant 1 (human, UniProt P78324 31-504); assay: as above
T2 construct: full length ORF on transfected CHO-K1 or HEK293 cells; entry includes the signal peptide; also called hSIRPαV1; SIRPαV1
Procedure: as §1
Target sequence in this assay (P78324 31-504 limits assumed, change not shown): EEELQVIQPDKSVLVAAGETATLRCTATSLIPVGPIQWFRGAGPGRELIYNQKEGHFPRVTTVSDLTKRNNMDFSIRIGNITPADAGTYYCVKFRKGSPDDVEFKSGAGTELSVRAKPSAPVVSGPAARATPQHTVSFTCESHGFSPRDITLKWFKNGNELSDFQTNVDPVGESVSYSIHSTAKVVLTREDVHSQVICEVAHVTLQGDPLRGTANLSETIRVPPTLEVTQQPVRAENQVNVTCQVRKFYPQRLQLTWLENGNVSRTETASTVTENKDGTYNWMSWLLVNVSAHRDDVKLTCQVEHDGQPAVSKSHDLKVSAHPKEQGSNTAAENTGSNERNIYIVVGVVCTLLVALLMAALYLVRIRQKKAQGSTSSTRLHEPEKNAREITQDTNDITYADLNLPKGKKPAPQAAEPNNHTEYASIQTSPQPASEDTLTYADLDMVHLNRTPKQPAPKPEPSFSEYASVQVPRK

human SIRPγ [3] = target: T3, human SIRPγ (human, UniProt Q9P1W8 29-387); assay: as above
T3 construct: on transfected CHO-K1 cells; also called hSIRPγ
T3 sequence (Q9P1W8 29-387 limits assumed): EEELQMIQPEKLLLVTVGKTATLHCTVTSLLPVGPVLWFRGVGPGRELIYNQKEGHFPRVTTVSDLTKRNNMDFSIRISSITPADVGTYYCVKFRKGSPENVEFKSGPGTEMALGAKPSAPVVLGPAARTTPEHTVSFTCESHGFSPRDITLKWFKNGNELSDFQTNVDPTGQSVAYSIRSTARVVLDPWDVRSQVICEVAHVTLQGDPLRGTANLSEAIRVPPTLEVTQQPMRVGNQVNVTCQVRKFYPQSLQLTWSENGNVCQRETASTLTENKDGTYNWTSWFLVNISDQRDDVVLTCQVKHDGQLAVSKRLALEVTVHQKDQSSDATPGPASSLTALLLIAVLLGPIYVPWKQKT
Procedure: as §1

human SIRPα variant 2 [4] = target: T1, human SIRPα variant 2; assay: as above; remark: listed apart in the source
Procedure: (§2) The binding specificity of antibody hSIRPα.50A to hSIRPα was compared antibody KWAR23 (Canadian Patent 2939293 A1), in a CELISA format. CHO-K1 cells were transiently transfected with hSIRPαV1, hSIRPαV2, hSIRPβ1, and hSIRPγ (GenBank accession: NM_018556.3) (SEQ ID NO: 39) cDNAs. Subsequently, hSIRPα binding was assessed by CELISA using CHO-K1.hSIRPαV1, CHO-K1.hSIRPαV2, CHO-K1.hSIRPβ1, and CHO-K1.hSIRPγ cells. Detection of bound antibody was performed with goat-anti-mouse IgG-HRP (Southern Biotech) for mouse antibodies including hSIRPα.50A and control antibodies or, alternatively, with goat-anti-human IgG-HRP conjugate (Jackson Immuno Research) for the KWAR23 antibody. KWAR23 (SEQ ID NO: 130; SEQ ID NO: 131) was expressed as a chimeric human IgG4 kappa antibody in CHO cells. As shown in FIG. 2 and the following Table 9, KWAR23 antibody cross-reacts with all members of the SIRP receptor family tested: it binds to hSIRPαV1, hSIRPαV2, hSIRPβ1, and hSIRPγ.

human SIRPα variant 1 [5] = target: T2, human SIRPα variant 1; assay: as above; remark: listed apart in the source
Procedure: as §2

human SIRPγ [6] = target: T3, human SIRPγ; assay: as above; remark: listed apart in the source
Procedure: as §2

human SIRPα variant 2 [7] = target: T1, human SIRPα variant 2; assay: flow cytometry, blockade of DyLight488-hCD47/Fc binding to THP-1 cells
Summary of the method: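 THP-1 or U-937 monocyte cells in 96-well round-bottom plates were incubated for 45 minutes at 4 °C in PBS/1% BSA with FcR Blocking Reagent and a dilution series of anti-SIRPα antibody. Cells were washed, resuspended with 0.1 μg/mL DAPI and measured by flow cytometry, with analysis in FlowJo. IC50 is the antibody concentration giving half-maximal inhibition of CD47/Fc binding.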

human SIRPα variant 2 [8] = target: T1, human SIRPα variant 2; assay: flow cytometry, blockade of DyLight488-hCD47/Fc binding to THP-1 cells; remark: listed apart in the source
Procedure: (§3) hCD47 blockade for the KWAR23, clone 18D5, and hSIRPα.40A antibodies was assessed by flow cytometry. For this purpose, THP-1 (ATCC TIB-202) and U-937 (ATCC CRL-1593.2) monocyte cell lines were used as the source of hSIRPα in the assay. THP-1 and U-937 cells were seeded in 96-well round bottomed tissue culture plates and incubated for 45 minutes with FcR Blocking Reagent (Miltenyi Biotec) and indicated anti-hSIRPα antibodies (20 μg/mL and dilutions thereof) in PBS/1% BSA at 4° C. […] After this labeling procedure, cells were washed two times, resuspended in PBS/1% BSA containing 0.1 μg/mL DAPI (BioLegend), and analysed by flow cytometry on the FACSVerse (BD Biosciences). Data were processed and analysed with FlowJo V10 software (FlowJo, LLC) and plotted using GraphPad Prism 6 (GraphPad Software, Inc.). Binding of recombinant hCD47 fused to an Fc domain of human IgG1 was monitored in the presence of increasing amounts of the anti-hSIRPα antibodies. […] IC50 values represent the concentration at which half of the inhibition is observed.

human SIRPα variant 1 [9] = target: T2, human SIRPα variant 1; assay: flow cytometry, blockade of DyLight488-hCD47/Fc binding to U-937 cells
Procedure: as §3

T1 sequence (P78324 other isoform, or with tags, fused parts or gaps mutant limits assumed): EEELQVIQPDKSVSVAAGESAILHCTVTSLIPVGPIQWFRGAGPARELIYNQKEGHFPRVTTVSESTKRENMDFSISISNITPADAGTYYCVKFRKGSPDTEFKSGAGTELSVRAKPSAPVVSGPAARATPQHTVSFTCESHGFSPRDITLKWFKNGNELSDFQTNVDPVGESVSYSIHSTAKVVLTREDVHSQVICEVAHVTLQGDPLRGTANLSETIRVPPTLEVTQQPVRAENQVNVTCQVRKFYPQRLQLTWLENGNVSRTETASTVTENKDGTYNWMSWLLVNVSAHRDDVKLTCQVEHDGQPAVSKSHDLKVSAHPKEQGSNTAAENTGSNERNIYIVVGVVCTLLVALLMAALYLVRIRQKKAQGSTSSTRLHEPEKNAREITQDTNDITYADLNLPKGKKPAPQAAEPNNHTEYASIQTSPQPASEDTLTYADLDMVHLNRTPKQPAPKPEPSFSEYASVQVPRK

EC50 (human SIRPα variant 2 [1]): 1.16 nM
EC50 (human SIRPα variant 1 [2]): 1.43 nM
EC50 (human SIRPγ [3]): 1.99 nM
EC50 (human SIRPα variant 2 [4]): 1.3 nM
EC50 (human SIRPα variant 1 [5]): 1.36 nM
EC50 (human SIRPγ [6]): 1.25 nM
IC50 (human SIRPα variant 2 [7]): 7.83 nM
B1: hSIRPα.50A (antibody, V domains shown)
VH: QVQLQQSGPELVKPGASVRISCKASGFTFTNYYIHWVKQRPGQGLEWIGWIYPGNVNTKYNEKFKAKATLTADKSSTTAYMQLSSLASEDSAVYFCARPTIIATDFDVWGAGTTVTVSS
VL: DIVMTQSHKFMSTSVGDRVNITCKASQGVGTAVGWYQQKPGQSPRLLIYWASTRHTGVPDRFTGSGSGTDFSLAISNVQSEDLADYFCQQYSTYPFTFGGGTNLEIK
notes: light chain constant domain not tied; also called mouse hSIRPα.50A; hSIRPα.50A.mIgG1

EC50 (human SIRPα variant 2 [4]): 0.051 nM
EC50 (human SIRPα variant 1 [5]): 0.081 nM
EC50 (human SIRPγ [6]): 0.04 nM
IC50 (human SIRPα variant 2 [8]): 0.132 nM
IC50 (human SIRPα variant 1 [9]): 0.284 nM
B2: KWAR23 (antibody, V domains shown)
VH: EVQLQQSGAELVKPGASVKLSCTASGFNIKDYYIHWVQQRTEQGLEWIGRIDPEDGETKYAPKFQDKATITADTSSNTAYLHLSSLTSEDTAVYYCARWGAYWGQGTLVTVSS
VL: QIVLTQSPAIMSASPGEKVTLTCSASSSVSSSYLYWYQQKPGSSPKLWIYSTSNLASGVPARFSGSGSGTSYSLTISSMEAEDAASYFCHQWSSYPRTFGAGTKLELK

EC50 (human SIRPα variant 2 [1]): 0.088 nM
EC50 (human SIRPα variant 1 [2]): 0.109 nM
EC50 (human SIRPγ [3]): 0.099 nM
IC50 (human SIRPα variant 2 [8]): 0.548 nM
IC50 (human SIRPα variant 2 [7]): 0.646 nM
IC50 (human SIRPα variant 1 [9]): 1.42 nM
B3: hSIRPα.40A (antibody, mouse IgG1, kappa, V domains shown)
VH: EVQFQQSGTVLARPGTSVKMSCKASGSTFTSYWMHWVKQGPGQGLQWIGAIYPVNNDTTYNQKFKGKAELTVVTSTSTAYMEVSSLTNEDSAVYYCTRSFYYSLDAAWFVYWGQGTLVTVSA
VL: DIQMTQSPSSLSASLGERVSLTCRASQDIGSRLNWLQQEPDGTIKRLIYATSSLDSGVPKRFSGSRSGSDYSLTISGLESEDFVDYYCLQYASSPFTFGGGTKLEINR
notes: mouse antibody, full chains without signal peptide; also called mouse hSIRPα.40A
